In patent publication US20230295310A1 (ABCELLERA BIOLOGICS, published 2023):

Biological target: human EGFR, C-terminal eGFP-tagged, on CHO-K1 cells (human, UniProt P00533 25-1210)
Assay: cell-based or functional assay

Binder	EC50 CHO-K1 EGFR Low (nM); T cell activation bioassay, luciferase [nM]	EC50 CHO-K1 EGFR Med (nM); T cell activation bioassay, luciferase [nM]
GOMP001_bsAb_038 (bispecific antibody, human IgG1, kappa, L234A L235A) heavy 1: EVQLVESGGVLVKTGGSLRLSCVASGFSFKKAWMNWVRYAPGKGLEWVGRIKRNSDGGAADYAARVKDRFTLSRDDSKNTLYLQMNSLKTEDTAVYYCTTLDSSSWYVGYYYMDVWGRGTTVTVSSASTKGPSVFPLAPSSKSTSGGTAALGCLVKDYFPEPVTVSWNSGALTSGVHTFPAVLQSSGLYSLSSVVTVPSSSLGTQTYICNVNHKPSNTKVDKKVEPKSCDKTHTCPPCPAPEAAGGPSVFLFPPKPKDTLMISRTPEVTCVVVDVSHEDPEVKFNWYVDGVEVHNAKTKPREEQYNSTYRVVSVLTVLHQDWLNGKEYKCKVSNKALPAPIEKTISKAKGQPRRPRVYTLPPSREEMTKNQVSLVCLVKGFYPSDIAVEWESNGQPENNYKTTPPVLDSDGSFFLYSVLTVDKSRWQQGNVFSCSVMHEALHNHYTQKSLSLSPG light 1: DIHMTQSPSSVSASLGDRVTFTCRASQNINNWLAWYQRKPGDAPKLLIYTASSLQSGVPSRFSGSGSGTDFTLTISSLQPDDFATYYCQQAHSLPITFGQGTRLGIKRTVAAPSVFIFPPSDEQLKSGTASVVCLLNNFYPREAKVQWKVDNALQSGNSQESVTEQDSKDSTYSLSSTLTLSKADYEKHKVYACEVTHQGLSSPVTKSFNRGEC heavy 2: QVQLVQSGAEVKKPGASVKVSCKASGYTFTSHWMHWVRYAPGQGLEWIGEFNPSNGRTNYNEKFKSKATMTVDTSTNTAYMELSSLRSEDTAVYYCASRDYDYDGRYFDYWGRGTLVTVSSASTKGPSVFPLAPSSKSTSGGTAALGCLVKDYFPEPVTVSWNSGALTSGVHTFPAVLQSSGLYSLSSVVTVPSSSLGTQTYICNVNHKPSNTKVDKKVEPKSCDKTHTCPPCPAPEAAGGPSVFLFPPKPKDTLMISRTPEVTCVVVDVSHEDPEVKFNWYVDGVEVHNAKTKPREEQYNSTYRVVSVLTVLHQDWLNGKEYKCKVSNKALPAPIEKTISKAKGQPRRPRVYTLPPSREEMTKNQVSLVCLVKGFYPSDIAVEWESNGQPENNYKTTPPVLDSDGSFFLYSVLTVDKSRWQQGNVFSCSVMHEALHNHYTQKSLSLSPG light 2: DIQMTQSPSSLSASVGDRVTITCSASSSVTYMYWYQRKPGDAPKLLIYDTSNLASGVPSRFSGSGSGTDYTFTISSLQPEDIATYYCQQWSSHIFTFGQGTKVEIKRTVAAPSVFIFPPSDEQLKSGTASVVCLLNNFYPREAKVQWKVDNALQSGNSQESVTEQDSKDSTYSLSSTLTLSKADYEKHKVYACEVTHQGLSSPVTKSFNRGEC	0.0248	0.00489
GOMP001_bsAb_039 (bispecific antibody, human IgG1, kappa, L234A L235A) heavy 1: QVQLVQSGAEVKKPGASVKVSCKASGYTFTSHWMHWVRKAPGQGLEWIGEFNPSNGRTNYNEEFKSKATMTVDTSTNTAYMELSSLRSEDTAVYYCASRDYDYDGRYFDYWGQGTLVTVSSASTKGPSVFPLAPSSKSTSGGTAALGCLVADYFPEPVTVSWNSGALTSGVHTFPAVLQSSGLYSLSSVVTVPSSSLGTQTYICNVNHKPSNTKVDEKVEPKSCDKTHTCPPCPAPEAAGGPSVFLFPPKPKDTLMISRTPEVTCVVVDVSHEDPEVKFNWYVDGVEVHNAKTKPREEQYNSTYRVVSVLTVLHQDWLNGKEYKCKVSNKALPAPIEKTISKAKGQPREPQVYTLPPSREEMTDNQVSLTCLVKGFYPSDIAVEWESNGQPENNYKTTPPVLMSDGSFFLASKLTVDKSRWQQGNVFSCSVMHEALHNHYTQKSLSLSPG light 1: RIQMTQSPSSLSASVGDRVTITCSASSSVTYMYWYQDKPGKAPKLLIYDTSNLASGVPSRFSGSGSGTDYTFTISSLQPEDIATYYCQQWSSHIFTFGQGTKVEIKRTVAAPSVFIFPPSDKQLKSGTARVVCLLNNFYPREAKVQWKVDNALQSGNSQESVTEQDSKDSTYSLSSTLTLSKADYEKHKVYACEVTHQGLSSPVTKSFNRGEC heavy 2: EVQLVESGGGLVKTGGSHRLSCVASGFSFKKAWMNWVRYAPGKGLEWVGRIKRNSDGGTTDYAARVKGRFILSRDDSKNTLYLQMNSLKTEDTAVYYCTTLDSSSWYVGYYYMDVWGRGTTVTVSSASTKGPSVFPLAPSSKSTSGGTAALGCLVKDYFPEPVTVSWNSGALTSGVHTFPAVLQSSGLYSLSSVVTVPSSSLGTQTYICNVNHKPSNTKVDKKVEPKSCDKTHTCPPCPAPEAAGGPSVFLFPPKPKDTLMISRTPEVTCVVVDVSHEDPEVKFNWYVDGVEVHNAKTKPREEQYNSTYRVVSVLTVLHQDWLNGKEYKCKVSNKALPAPIEKTISKAKGQPRRPRVYTLPPSREEMTKNQVSLVCLVKGFYPSDIAVEWESNGQPENNYKTTPPVLDSDGSFFLYSVLTVDKSRWQQGNVFSCSVMHEALHNHYTQKSLSLSPG light 2: DIQMTQSPSSVSASVGDRVTITCRASQDINNWLAWYQRKPGDAPKILIYTASNLQSGVPSRFSGSGSGTDFTLTISSLQPEDFATYFCQQAHSLPITFGQGTRLEIKRTVAAPSVFIFPPSDEQLKSGTASVVCLLNNFYPREAKVQWKVDNALQSGNSQESVTEQDSKDSTYSLSSTLTLSKADYEKHKVYACEVTHQGLSSPVTKSFNRGEC	0.369	0.0257

Now from value to binder:

EC50 CHO-K1 EGFR Low (nM); T cell activation bioassay, luciferase [nM]	EC50 CHO-K1 EGFR Med (nM); T cell activation bioassay, luciferase [nM]	Binder
0.297	0.022	GOMP001_bsAb_041 (bispecific antibody, human IgG1, kappa, L234A L235A) heavy 1: QVQLVQSGAEVKKPGASVKVSCKASGYTFTSHWMHWVRKAPGQGLEWIGEFNPSNGRTNYNEEFKSKATMTVDTSTNTAYMELSSLRSEDTAVYYCASRDYDYDGRYFDYWGQGTLVTVSSASTKGPSVFPLAPSSKSTSGGTAALGCLVADYFPEPVTVSWNSGALTSGVHTFPAVLQSSGLYSLSSVVTVPSSSLGTQTYICNVNHKPSNTKVDEKVEPKSCDKTHTCPPCPAPEAAGGPSVFLFPPKPKDTLMISRTPEVTCVVVDVSHEDPEVKFNWYVDGVEVHNAKTKPREEQYNSTYRVVSVLTVLHQDWLNGKEYKCKVSNKALPAPIEKTISKAKGQPREPQVYTLPPSREEMTDNQVSLTCLVKGFYPSDIAVEWESNGQPENNYKTTPPVLMSDGSFFLASKLTVDKSRWQQGNVFSCSVMHEALHNHYTQKSLSLSPG light 1: RIQMTQSPSSLSASVGDRVTITCSASSSVTYMYWYQDKPGKAPKLLIYDTSNLASGVPSRFSGSGSGTDYTFTISSLQPEDIATYYCQQWSSHIFTFGQGTKVEIKRTVAAPSVFIFPPSDKQLKSGTARVVCLLNNFYPREAKVQWKVDNALQSGNSQESVTEQDSKDSTYSLSSTLTLSKADYEKHKVYACEVTHQGLSSPVTKSFNRGEC heavy 2: EVQLVESGGGLVKTGGSLRLSCVASGFSFKKAWMNWVRYAPGKGLEWVGRIKRNTDGGPADYAARVKGRFTLSRDDSKKTLYLQMNSLKTEDTAVYYCTTLDSSSWYVGYYYMDVWGRGTTVTVSSASTKGPSVFPLAPSSKSTSGGTAALGCLVKDYFPEPVTVSWNSGALTSGVHTFPAVLQSSGLYSLSSVVTVPSSSLGTQTYICNVNHKPSNTKVDKKVEPKSCDKTHTCPPCPAPEAAGGPSVFLFPPKPKDTLMISRTPEVTCVVVDVSHEDPEVKFNWYVDGVEVHNAKTKPREEQYNSTYRVVSVLTVLHQDWLNGKEYKCKVSNKALPAPIEKTISKAKGQPRRPRVYTLPPSREEMTKNQVSLVCLVKGFYPSDIAVEWESNGQPENNYKTTPPVLDSDGSFFLYSVLTVDKSRWQQGNVFSCSVMHEALHNHYTQKSLSLSPG light 2: DIQMTQSPSSVSASVGDRVIITCRASQDINNWLAWYLRRPGDAPKLLIYAASSLQSGVPSRFSGSGSGTDFTLTIGSLQPEDFATYYCQQAHSLPITFGQGTRLEIQRTVAAPSVFIFPPSDEQLKSGTASVVCLLNNFYPREAKVQWKVDNALQSGNSQESVTEQDSKDSTYSLSSTLTLSKADYEKHKVYACEVTHQGLSSPVTKSFNRGEC
0.0499	0.0038	GOMP001_bsAb_040 (bispecific antibody, human IgG1, kappa, L234A L235A) heavy 1: EVQLVESGGGLVKTGGSHRLSCVASGFSFKKAWMNWVRYAPGKGLEWVGRIKRNSDGGTTDYAARVKGRFILSRDDSKNTLYLQMNSLKTEDTAVYYCTTLDSSSWYVGYYYMDVWGRGTTVTVSSASTKGPSVFPLAPSSKSTSGGTAALGCLVKDYFPEPVTVSWNSGALTSGVHTFPAVLQSSGLYSLSSVVTVPSSSLGTQTYICNVNHKPSNTKVDKKVEPKSCDKTHTCPPCPAPEAAGGPSVFLFPPKPKDTLMISRTPEVTCVVVDVSHEDPEVKFNWYVDGVEVHNAKTKPREEQYNSTYRVVSVLTVLHQDWLNGKEYKCKVSNKALPAPIEKTISKAKGQPRRPRVYTLPPSREEMTKNQVSLVCLVKGFYPSDIAVEWESNGQPENNYKTTPPVLDSDGSFFLYSVLTVDKSRWQQGNVFSCSVMHEALHNHYTQKSLSLSPG light 1: DIQMTQSPSSVSASVGDRVTITCRASQDINNWLAWYQRKPGDAPKILIYTASNLQSGVPSRFSGSGSGTDFTLTISSLQPEDFATYFCQQAHSLPITFGQGTRLEIKRTVAAPSVFIFPPSDEQLKSGTASVVCLLNNFYPREAKVQWKVDNALQSGNSQESVTEQDSKDSTYSLSSTLTLSKADYEKHKVYACEVTHQGLSSPVTKSFNRGEC heavy 2: QVQLVQSGAEVKKPGASVKVSCKASGYTFTSHWMHWVRYAPGQGLEWIGEFNPSNGRTNYNEKFKSKATMTVDTSTNTAYMELSSLRSEDTAVYYCASRDYDYDGRYFDYWGRGTLVTVSSASTKGPSVFPLAPSSKSTSGGTAALGCLVKDYFPEPVTVSWNSGALTSGVHTFPAVLQSSGLYSLSSVVTVPSSSLGTQTYICNVNHKPSNTKVDKKVEPKSCDKTHTCPPCPAPEAAGGPSVFLFPPKPKDTLMISRTPEVTCVVVDVSHEDPEVKFNWYVDGVEVHNAKTKPREEQYNSTYRVVSVLTVLHQDWLNGKEYKCKVSNKALPAPIEKTISKAKGQPRRPRVYTLPPSREEMTKNQVSLVCLVKGFYPSDIAVEWESNGQPENNYKTTPPVLDSDGSFFLYSVLTVDKSRWQQGNVFSCSVMHEALHNHYTQKSLSLSPG light 2: DIQMTQSPSSLSASVGDRVTITCSASSSVTYMYWYQRKPGDAPKLLIYDTSNLASGVPSRFSGSGSGTDYTFTISSLQPEDIATYYCQQWSSHIFTFGQGTKVEIKRTVAAPSVFIFPPSDEQLKSGTASVVCLLNNFYPREAKVQWKVDNALQSGNSQESVTEQDSKDSTYSLSSTLTLSKADYEKHKVYACEVTHQGLSSPVTKSFNRGEC
